# Data published in patent US20190085082A1 (CANCER RESEARCH TECHNOLOGY, published 2019).
# B1: CRT-3 anti-CLEC14A monoclonal antibody (antibody, IgG1, V domains shown)
# VH: EVQLQQSGTVLARPGASVKMSCKASGYTFTSYWMHWVKQRPGQGLEWIGAIYPGNSDTSYNQKFKGKAKLTAVTSTSTAYMELSSLTNEDSAVFYCTHYYGSDYAMDYWGQGTSVTV
# VL: QIVLTQSPAIMSASLGERVTMTCTASSSVSSSYLHWYQQKPGSSPKLWIYSTSNLASGVPARFSGSGSGTSYSLTISSMEAEDAATYYCHQYHRSPRTFGGGTKLEIKR
# Tests used:
# [1] = target: T1, full length human CLEC14A on cells (engineered CHO, SEND or 293 cells; HUVECs) (human, UniProt Q86T13 22-490); assay: fluorescence microscopy of HUVEC treated with CRT-3, antibody localisation at 0 and 90 minutes
# T1 construct: HUVECs express it naturally; also called huCLEC
# T1 sequence: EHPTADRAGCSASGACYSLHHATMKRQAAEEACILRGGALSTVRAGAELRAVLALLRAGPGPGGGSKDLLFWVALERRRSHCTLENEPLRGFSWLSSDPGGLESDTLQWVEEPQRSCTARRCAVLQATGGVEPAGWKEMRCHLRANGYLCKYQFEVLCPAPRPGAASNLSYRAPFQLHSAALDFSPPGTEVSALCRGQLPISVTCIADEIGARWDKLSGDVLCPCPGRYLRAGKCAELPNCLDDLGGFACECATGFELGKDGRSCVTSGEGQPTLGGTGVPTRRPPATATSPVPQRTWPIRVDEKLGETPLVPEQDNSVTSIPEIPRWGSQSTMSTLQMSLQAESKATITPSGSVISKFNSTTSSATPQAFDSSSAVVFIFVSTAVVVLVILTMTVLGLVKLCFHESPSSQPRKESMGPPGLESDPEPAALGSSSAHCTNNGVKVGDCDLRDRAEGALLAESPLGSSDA
# [2] = target: T2, thrombomodulin (CD141), wild type, with C-terminal GFP tag, expressed on HEK293T cells (UniProt P07204 19-575); assay: flow cytometry, HEK293T cells transfected with thrombomodulin (C-terminal GFP tag, GFP-positive cells gated)
# T2 construct: whole, on cells; also called WT CD141; VVT CD141; not shown: C-terminal GFP tag
# T2 sequence (P07204 19-575): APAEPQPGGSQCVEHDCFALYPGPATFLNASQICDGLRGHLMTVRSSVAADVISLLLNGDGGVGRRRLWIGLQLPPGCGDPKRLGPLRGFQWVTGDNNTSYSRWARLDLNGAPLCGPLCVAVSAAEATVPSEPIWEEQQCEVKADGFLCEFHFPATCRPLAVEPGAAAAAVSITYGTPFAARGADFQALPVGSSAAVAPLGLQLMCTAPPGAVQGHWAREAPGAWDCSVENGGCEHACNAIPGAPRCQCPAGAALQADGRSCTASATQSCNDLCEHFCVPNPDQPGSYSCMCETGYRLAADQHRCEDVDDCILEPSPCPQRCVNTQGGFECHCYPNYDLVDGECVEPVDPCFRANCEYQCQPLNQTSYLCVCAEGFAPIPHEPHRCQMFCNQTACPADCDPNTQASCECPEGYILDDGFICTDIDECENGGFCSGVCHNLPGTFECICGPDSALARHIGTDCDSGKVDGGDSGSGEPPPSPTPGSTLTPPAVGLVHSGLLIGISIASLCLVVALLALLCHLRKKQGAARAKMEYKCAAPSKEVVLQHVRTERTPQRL
# [3] = target: T3, murine CLEC14A-Fc fusion protein (mouse, UniProt Q8VCP9 22-386); assay: ELISA of hybridoma supernatants on absorbed antigen
# T3 construct: extracellular domain; also called CM; mCLEC14A-Fc; not shown: human Fc tag from the pcDNA3-Fc plasmid
# T3 sequence (looked up): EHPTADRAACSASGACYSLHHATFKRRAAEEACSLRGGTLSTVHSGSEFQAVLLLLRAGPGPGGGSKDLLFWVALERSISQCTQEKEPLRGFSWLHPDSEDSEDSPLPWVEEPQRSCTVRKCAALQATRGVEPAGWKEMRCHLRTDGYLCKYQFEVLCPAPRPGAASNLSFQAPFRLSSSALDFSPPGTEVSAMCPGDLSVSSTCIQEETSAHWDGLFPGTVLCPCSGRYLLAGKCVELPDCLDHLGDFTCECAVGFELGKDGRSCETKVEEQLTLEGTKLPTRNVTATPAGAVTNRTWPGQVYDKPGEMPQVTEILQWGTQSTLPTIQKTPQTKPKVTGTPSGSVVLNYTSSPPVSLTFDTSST
# Experimental: More than 500 HAT-resistant hybridoma clones from each mouse were obtained. All of the clone supernatants were tested twice with 4 days interval by ELISA against three absorbed antigens (CM, CH and Fc). […] The positives were cloned 2-4 times by the limiting dilution method, propagated in culture flasks and injected into mice for ascites. One clone (CRT-3) was the result of immunisation with CLEC14a human-AP (CHAP), and the other clone (CRT-2) was the result of immunisation with CLEC14a mouse-AP (CM-AP).
binder,measurement,setting,value
B1,binding result,[1],binds
same,binding result,[2],no binding
same,binding result,[3],binds
